As usually defined, the Kd is a measure of binding affinity in units of concentration. A higher Kd goes with a looser complex.

For assay [1], the target named is T1, Biotinylated SARS-CoV-2 S1 protein (ACRO, S1N-C82E8) (UniProt P0DTC2 16-685). Nature of the assay: BLI. On the technique in general: In BLI a coated tip is dipped into the sample, and binding shifts an interference pattern.
For assay [2], the target named is T1, Biotinylated SARS-CoV-2 S1 protein …. Briefly: BLI. The source holds these as a separate data set.

Where two headings read alike, the source gives them in different places.

B1: Ab 21 (scFv, V domains shown)
VH: QVQLVQSGGGLVQPGGSLRLSCATSGFTFDDYAMHWVRQAPGKGLEWVSGISWNSGSIGYVDSVKGRFTISRDNRNNKVYLQMNNLRAEDTAVYYCARDWWGSIDHWGLGTLVTVSS
VL: QSALTQPRSVSGSPGQSVTISCTGTSSDVGGYDYVSWYQQHPGKAPKLIIYDVSKRPSGVPDRFSGSKSGNTASLTVSGLQAEDEADYYCSSYTSSSPVVFGGGTKLTVL
In the case of B1, the Kd in assay [1] and in assay [2] was 1.28 nM in each case.

B2: Ab 26 scFv-Fc (scFv, V domains shown)
VH: QVQLVQSGGGLVQPGRSLRLSCAASGFTFDDYAMHWVRQVPGKGLEWVSGIDWNSGVIGYADSVKGRFTISRDNAKNSLYLQMNSLRAEDTALYYCAKDAYSYGFLGAFDIWGQGTMVTVSS
VL: LPVLTQPPSVSVAPGQTASITCGGDNIRTKGVHWYQQKPGQAPLLVIYYASDRPSGIPERFSGSSSGNTATLTISRVEAGDEADYYCQVWDSSSDLVVFGGGTTLTVL
B2: the Kd in assay [1] and in assay [2] was 0.0875 nM each time.

B3: S1-RBD-R3-T1-C7 Ab (Ab 29) (scFv, V domains shown)
VH: QVQLQQSGPGLVKPSQTLSLTCAISGDSVSSYSDAWNWIRQSPSRGLEWLGRTYYRSKWYNDYAVSVKSRITINPDTSKNQFSLQLSSVTPEDTAVYYCAREIVATTPFRNYYYGMDVWGQGTTVTVSS
VL: NFMLTQPHSVSESPGNTVTISCTRTSGSIASNYVQWYQQRPGSSPTTVIFQDKLRPSGVPDRFSGSIDSSSNSASLTISGLKTEDEADYYCQSYDSSSLWVFGGGTKLTVL
B3: in assay [1], the Kd is under 0.001 nM.

B4: Ab 15 scFv-Fc (scFv, V domains shown)
VH: QVQLVQSGGGLVKPGRSLRLSCTASGFTFGDYAMSWFRQAPGKGLEWVGFIRSKAYGGTTGYAASVKGRFTISRDDSKSIAYLQMNSLKTEDTAVYYCTTADDDMDVWGKGTTVTVSS
VL: NFMLTQPHSVSESPGKTVTISCTRSSGTIASNYVQWYQQRPGSAPTTVIYEDNQRPSGVPDRFSGSIDRSSNSASLTISGLTPDDEADYYCQSYDTSNHYVFGTGTKVTVL
On to B4, for which the Kd in assay [1] and in assay [2] was 0.033 nM in each case.

B5: Ab_13 (scFv, V domains shown)
VH: QVTLKESGPKLVKPTQTLTLTCTFSGFSLSTSGVGVGWIRQPPGKALEWLALIYWDDDKRYSPSLKSRLTIAKDTSKYQVVLTMTNMDPVDTATYYCARISGSGYFYPFDIWGQGTMVTVSA
VL: NFMLTQPHSVSESPGKTVTISCTRSSGSIASNYVQWYQQRPGSAPTTVIYEDNQRPSGVPDRFSGSIDSSSNSASLTISGLKTEDEADYYCQSYDSSNLWVFGGGTKLTVL
In the case of B5, the Kd in assay [1] and in assay [2] was 1.14 nM throughout.

B6: Ab 14 scFv-Fc (scFv, V domains shown)
VH: QVQLQQSGPGLVKPSQTLSLTCAISGDSVSSNSAAWNWIRQSPARGLEWLGRTYYRSRWYNDYAISMKSRITINPDTSKNQFSLQLESVTPEDTAVYYCAREIRGFDYWGQGTLVTVSS
VL: QSVLTQPPSASGSPGQSVTISCTGTSSDVGAYNFVSWYQHHPGKAPKLIIYDFNKRPSGVPDRFSGSKSGNTASLTVSGLQADDEADYYCSSYAGSNNFDVVFGGGTKLTVL
For the molecule B6, the Kd in assay [1] and in assay [2] was 0.594 nM throughout.

B7: Ab 25 scFv-Fc (scFv, V domains shown)
VH: QVQLVQSGGGLVQPGGSLRLSCAASGFTFSSYWMSWVRQAPGKGLEWVANIKQDGSEKYYVDSVKGRFTISRDNAKNSLYLQMNSLRAEDTAVYYCARGFYYYGAFDIWGQGTTVTVSS
VL: NFMLTQPHSVSESPGKTVTISCTGSSGSIASNYVQWYQQRPGSAPTTVIYEDNQRPSGVPDRFSGSIGSSSNSASLTISGLKTEDEADYYCQSYDSSNHWVFGGGTKLTVL
For the molecule B7, the Kd in assay [1] and in assay [2] was 10.1 nM each time.

B8: S1-RBD-R3-T1-B12 Ab (Ab_31) (scFv, V domains shown)
VH: QVQLVQSGAEVKKPGSSVKVSCKASGGTFSSYTISWVRQAPGQGLEWMGGIIPILGTPNYAQKFQDRVAITADKSTSTAYMELSSLRSEDTAVYYCAVGSGWYSGFDYWGQGTLVTVSS
VL: NFMLTQPHSVSESPGKTVTISCTGSSGSIASNYVQWYQQRPGSAPTTVIYEDSQRPSGVPDRFSGSIDSSSNSASLTISGLKTEDEADYYCQSFHNSNPVIFGGGTKLTVL
In the case of B8, the affinity in assay [1], expressed as Kd, was 2040 nM.

B9: Ab 20 (scFv, V domains shown)
VH: QVQLVQSGGGSVKPGGSLRLSCAASGYRLSDYYMHWVRQAPGKGLEWVANIKQDGSEKYYVDSVKGRFTISRDNAKNSLYLQMNSLRAEDTAVYYCARVRGWSRGYFDYWGQGTLVTVSS
VL: NFMLTQPHSVSESPGKTVTISCTGSSGSIASNYVQWYQQRPGSAPTTVIYEDNQRPSGVPDRFSGSIDSSSNSASLLISGLKTEDEADYYCQSYDSSNHWVFGGGTKLTVL
Regarding B9, the Kd in assay [1] and in assay [2] was 5.01 nM throughout.

B10: Ab 30 scFv-Fc (RBD-R3-E1-A5) (scFv, V domains shown)
VH: QVQLVQSGGGVVQPGKSLRLSCTASGFTFSDFPIHWVRQAPGKGLEWVGVISYDGNIKYYGDSVKGRFTISRDNAKNSLYLQMNSLRVEDTAVYYCARGGSSFDIWGQGTTVTVSS
VL: SYELTQPPSVSEAPRQRVTISCSGSTSNIGNNAVSWYQHLPGKAPKLLIYYNERLPSGVSDRFSGSKSGTSASLAISGLRSEDEADYYCAAWDDSLSGHVVFGGGTKLTVL
As to B10, binding in assay [1] was put at a Kd of 0.314 nM.

B11: Ab 38 (scFv, V domains shown)
VH: QVTLKESGPTLVKPTQTLTLTCTFSGFSLTTSGVSVGWIRQPPGKALEWLALIHWDDDKRYSPSLRSRLTITRDTSKNQVVLTVTDMDPADTGTYYCASFIMTVYAEYFEDWGQGTLVTVSS
VL: EIVLTQSPATLSVSPGERATLSCRASQSVSSNLAWYQQKPGQAPRLLMYDVSTRATGIPARFSGSGSGTEFSLTISSLQSEDFAVYYCQQRGAWPLTFGGGTKVEIK
Take B11: the Kd in assay [1] is 0.22 nM.

B12: RBD-R3-E1-F5 Ab (Ab_36) (scFv, V domains shown)
VH: QVQLQQSGPGLVKPSQTLSLTCAIFGDSVTSNSAAWNWIRQSPSRGLEWLGRTYYSSKWYNDYAVSVKSRVTINADTSKNQLSLQLNSVTPEDTAVYYCARGWLRLSFDPWGQGTLVTVSS
VL: NFMLTQPHSVSESPGKTVTISCTGSSGSIASNYVQWLQQRLGSAPTTVIYEDNQRPSGVPDRFSGSIDSSSNSASLTISGLKTEDEADYYCQSYDPNNHGVVFGGGTKLTVL
On to B12, for which, in assay [1], the Kd worked out at 0.0306 nM.

B13: RBD-R3-E1-B3 Ab (Ab_32) (scFv, V domains shown)
VH: QVQLVQSGAEVKKPGESLKISCKGSGYSFTSYWIGWVRQMPGKGLEWMGIIYPGDSDTRYSPSFQGQVTISADKSISTAYLQWSSLKASDTAMYYCARGWQWHDYWGQGTLVTVSS
VL: QTVVTQEPAVSVALGQTVRITCQGDSLRSYYASWYQQKPGQAPVLVVYDKDKRPSGIPDRFSGSTSGNTASLTITGAQAEDEADYYCNSRDRSDNHVVFGGGTKLTVL
In assay [1], B13 displayed a Kd of 0.168 nM.

B14: S1-R3-T1-C4 (Ab_8) (scFv, V domains shown)
VH: QVQLVQSGAEVKKPGSSVKVSCKASGGTFSSYAISWLRQAPGQGLEWMGWINPNSGGTNYAQKFQGRVTMTRDTSISTAYMELSRLRSDDTAVYYCARGSGGYYLGWGQGTLVTVSS
VL: QPGLTQPPSVSKGLRQTATLTCTGNSNNVGNQGAAWLQQHQGHPPKLLSYMNNNRPPGISERFSASRSGNTASLTITGLQPEDEADYYCSAWDSSLSRWVFGGGTKLSVL
Take B14: the Kd in assay [1] worked out at 325 nM.

B15: S1-RBD-R3-E1-E8 Ab (Ab 37) (scFv, V domains shown)
VH: QVQLVQSGAEVKKPGASVKVSCKASGYTFTSYGISWVRQAPGQGLEWMGWISTYNGNTNYAQKLQGRVTMTTDTSTSTAYMEVRSLRSDDTAVYYCARDVFGHFDYWGQGTLVTVSS
VL: NFMLTQPHSVSESPGKTVLISCTRSSGNIATNYVQWYQQRPGSAPTTVIYEDNQRPSGVPDRFSGSIDSSSNSASLTISGLKTEDEADYYCKSYDDGNHVFGGGTKLTVL
In turn, B15 showed a Kd in assay [1] of 0.907 nM.

B16: Ab 19 scFv-Fc (scFv, V domains shown)
VH: EVQLVESGAEVKKPGESLKISCKGSGYSFTSYWIGWVRQMPGKGLEWMGIIYPGDSDTRYSPSFQGQVTISADKSISTAYLQWSSLKASDTAMYYCARRGDLDAFDIWGQGTMVTVSS
VL: QPGLTQPPAASGTPGQRVTVSCSGASANIGSNAVSWFKQFPETAPRLLISGNTHRPSGVPDRVSGSKSGTSASLTISGLQSDDEADYYCAAWDDSLNGYVFGSGTKVTVL
As to B16, the Kd in assay [1] and in assay [2] was 0.13 nM each time.

B17: RBD-R3-T1-H3 (Ab_2) (scFv, V domains shown)
VH: EVQLVQSGAEVKKPGSSVKVSCKTSGYTFTTSGISWVRQAPGQGLEWMGWISAYNGNTNYAQKLQGRVTMTTDTSTSTAYMELRSLRSDDTAVYYCARDFHLYYGMDVWGKGTLVTVSS
VL: QSALTQPPSASGSPGQSVTISCTGTSSDVGAYNYVSWYQQHPGKAPKLLIYDVTKRPPGVPDRFSGSKSGNTASLTVSGLQAEDEADYYCAVWDDGLNGRVVFGGGTKLTVL
Regarding B17, the Kd in assay [1] was under 0.001 nM.

B18: Ab_16 (scFv, V domains shown)
VH: QVQLVQSGGGVVQPGRSLRLSCAASGFTFSNYGMHWVRQAPGKGLEWVALIWERGSKKDYADSVKGRFTVSRDNSKNTLYLQMNSLRPEDTAVYFCAREGISMTGAEYFQHWGQGTLVTVSS
VL: QSVLTQPPSVSGSPGQRVTMSCTGSSSNIGAGYDVHWYQQVPGAAPRLLIYGTNNRPSGVPDRFSGSKSGTSASLTITGLQAEDEADYYCQSYDNSLTDPYVFGTGTKVTVL
In the case of B18, the Kd in assay [1] and in assay [2] was 2.18 nM each time.

B19: S1-RBD-R3-T1-D7 Ab (Ab_34) (scFv, V domains shown)
VH: QVQLVQSGVEVKKPGESLKISCKGSGYSFTSYWIGWVRQMPGKGLEWMGIIYPGDSDTRYSPSFQGQVTISADKSISTAYLQWSSLKASDTAMYYCARTTYSYGSFDYWGQGTLVTVSS
VL: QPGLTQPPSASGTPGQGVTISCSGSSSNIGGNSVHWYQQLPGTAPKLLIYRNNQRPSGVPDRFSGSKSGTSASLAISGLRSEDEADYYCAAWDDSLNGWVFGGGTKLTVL
Consider B19, for which, in assay [1], the affinity, expressed as Kd, was 0.184 nM.

B20: Ab_18 (scFv, V domains shown)
VH: EVQLVQSGGGVVQPGRSLRVSCAASGFSFSRYGMHWVRQAPGKGLEWVAFIRHDGSKKYYADSVEGRFTISRDNSRNTVSLEMNSLRGEDTAVYYCAKDGRLEAALDDWGQGTLVTVSS
VL: NFMLTQPHSMSGSAGKTVTVSCIRSSGSIANNFVQWYQQRPGSAPTTVIYEDNQRPSGVPDRFSGSIDSSSNSASLTISGLKTEDEADYYCQSYDSSNLVFGGGTRLTVL
In the case of B20, the Kd in assay [1] and in assay [2] was 0.121 nM each time.

Values taken from patent US20230374114A1 (published 2023).
